Target: T1, SARS-CoV-2 RBD (RBD-luciferase antigen of the split-luciferase reporter) (SARS-CoV-2, UniProt P0DTC2 319-541)
T1 construct: domain: RBD
Experiment: split-luciferase reporter of RBD-hACE2 interaction; antibody against hACE2

| Binder | % inhibition of RBD-hACE2 binding |
| --- | --- |
| 3F2 (antibody, V domains shown, also called 1-3F2) VH: QVQLQQPGAELVKPGASVKMSCKASGYTFTSYSLHWVKQTPGQGLEWIGAVYPGNDDTSYNQNFKGKATLTADKSSNTAYMQLSSLTSEDSAVYYCARDGYFAMDYWGQGTSVTVSS VL: DIVMSQSPSSLAVSVGEKVTMSCKSSQSLLYSTNQKNYLAWYQQKPGQSPKLLIYWASTRESGVPDRFTGSGSGTDFTLTISSVKAEDLAVYYCHQYYSYPWTFGGGTKLEIK | > 80% |
| 3A2 (antibody, V domains shown, also called 3A2 clone) VH: QVTLKESGPGILQPSQTLSLTCSFSGFSLSTSGMGVSWIRQPSGKGLEWLAHIYWDDDKRYNPSLKSRLTISKDTSSSQVFLKITSVDTVDTATYYCARRGPLITTDGTFDVWGAGTTVTVSS VL: DIVMTQSRKFMSTSVGDRVSITCKASQDVGTSVAWYQQKPGQSPKLLIYWASTRHTGVPDRFTGSGSGTDFTLTINSVQSEDLADYFCQQYSSYPYTFGGGTKLEMK | > 80% |
| 3A7 (antibody, V domains shown, also called 3A7 clone) VH: QVTLKESGPGILQPSQTLSLTCSFSGFSLSTSGMGVSWIRQPSGKGLEWLAHIYWDDDKRYNPSLKSRLTISKDTSSSQVFLKITSVDTVDTATYYCARRGPLITTDGTFDVWGAGTTVTVSS VL: DIVMTQSRKFMSTSVGDRVSITCKASQDVGTSVAWYQQKPGQSPKLLIYWASTRHTGVPDRFTGSGSGTDFTLTINSVQSEDLADYFCQQYSSYPYTFGGGTKLEMK | > 80% |
| 3F5 (antibody, V domains shown, also called 1-3F5) VH: QVTLKESGPGILQPSQTLSLTCSFSGFSLSTSGMGVSWIRQPSGKGLEWLAHIYWDDDKRYNPSLKSRLTISKDTSSSQVFLKITSVDTVDTATYYCARRGPLITTDGTFDVWGAGTTVTVSS VL: DIVMTQSRKFMSTSVGDRVSITCKASQDVGTSVAWYQQKPGQSPKLLIYWASTRHTGVPDRFTGSGSGTDFTLTINSVQSEDLADYFCQQYSSYPYTFGGGTKLEMK | > 80% |
| 3B3 (antibody, V domains shown, also called 3B3 clone; 1-3B3) VH: DVQLQESGPGLVKPSQSLSLTCTVTGYSITSDYAWIWIRQFPGNKLEWMAYISYSGTTSYNPSLKSRISITRDTSKNQFFLQLNSVTTEDTATYYCAGRRGAYYGNYEEDYWGRGTSVTVSS VL: QIVLTQSPAIMSASPGEKVTMTCSSSSIVNYMYWYQQKPGSSPRLLIYDTSTLASGVPVRFSGSGSGTSYSLTISRMEAEDAATYYCQQWSSYPYTFGGGTKLEIK | > 80% |
| 3H2 (antibody, V domains shown, also called 1-3H2) VH: QVQLQQSGAELMKPGASVKISCKATGNTFSNYWIEWVKQRPGHGLEWIGEILPGSDSTNYNEKFKGKATFTADTSSKTAYMQLSSLTSEDSAVYYCARNRFYWYFDVWGAGTTVTVSS VL: DVVMTQTPLSLPVSLGDQASISCRSSQSLVHSNGNTYLHWYLQKPGQSPKLLIYKVSNRFSGVPDRFSGSGSGTDFTLKISRVEAEDLGIYFCSQSTHVPWTFGGGTKLEIK | > 80% |

From US20230242623A1 (GEORGIA TECH RESEARCH, published 2023)
